The target in this experiment is ζ subunit (F420-reductase subunit) of the CODH component of the ACDS from Candidatus Ethanoperedens thermophilum (Candidatus Ethanoperedens thermophilum). Put plainly: crystal structure; α2ε2ζ2 ACDS subcomplex purified natively as one complex; sitting drop, anaerobic, 20 °C, 20% PEG 6000, 100 mM MES pH 6.0, 200 mM ammonium chloride, 1 mM FAD and FMN added; refined to 1.89 Å.

The stoichiometry N is the number of molecules, sites or subunits per partner or assembly. Consider “ζ subunit (F420-reductase subunit) of the CODH component of the ACDS from Candidatus Ethanoperedens thermophilum (natural protein)”, for which the stoichiometry N amounted to 2.

The values are drawn from PMC11493965, “Ethane-oxidising archaea couple CO2 generation to F420 reduction” (Nature Communications, 2024).
